Here are results for two molecules from article PMC11124806, “Optimization of Surface Functionalizations for Ring Resonator-Based Biosensors”.

For one data set, the target named is T1, C-reactive protein (CRP) (UniProt P02741 19-224).
T1 sequence: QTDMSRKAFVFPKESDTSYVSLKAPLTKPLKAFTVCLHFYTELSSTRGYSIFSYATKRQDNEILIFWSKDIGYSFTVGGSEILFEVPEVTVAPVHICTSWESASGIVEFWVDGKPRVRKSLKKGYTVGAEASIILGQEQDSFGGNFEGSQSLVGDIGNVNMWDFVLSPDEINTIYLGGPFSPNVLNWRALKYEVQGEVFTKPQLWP
As to the kind of experiment: surface sandwich chemiluminescence (anti-CRP antibody-HRP); 100 nM CRP, 1 mM Ca2+, 1 mM Mg2+; still binds after two months storage at 4 C; CRP: 20 mM Hepes, 120 mM NaCl, 5 mM KCl, 1 mM CaCl2, 1 mM MgCl2, pH 7.3, room temperature, 30 min; thrombin: buffer with 0.05% Tween 20 (composition and temperature not in material). The following applies: protein: commercial; chain copies: 5; label: 3' TAMRA on some amounts.

The target of the next data set is thrombin (Thr) (UniProt P00734;P00734 328-363;364-622). As to the kind of experiment: microring resonator (label-free photonic biosensor); 100 nM thrombin, 0.05% Tween 20, MCH-passivated chip; about 71% retained after buffer wash; CRP: 20 mM Hepes, 120 mM NaCl, 5 mM KCl, 1 mM CaCl2, 1 mM MgCl2, pH 7.3, room temperature, 30 min; thrombin: buffer with 0.05% Tween 20 (composition and tempera).

B1: a-CRP (ssDNA)
DNA: CGAAGGGGATTCGAGGGGTGATTGCGTGCTCCATTTGGTG
modifications: 5' thiol (5ThioMC6-D, reduced), immobilized on mercaptosilane
In the case of B1, the binding result with C-reactive protein (CRP) is “binds”.

B2: a-Thr (structured_DNA)
DNA: AGTCCGTGGTAGGGCAGGTTGGGGTGACT
modifications: 5' thiol (5ThioMC6-D, reduced), immobilized on mercaptosilane
Turning to B2, in the data set with thrombin (Thr), the binding result was “binds”.
